For assay [1], the target named is T1, human CD73 on CD73-expressing human tumor cells (MDA-MB-231, NCI-H292) (human, UniProt P21589 27-549).
T1 construct: whole, on cells; The cell line of each result is named under assay or readout; also called cell surface CD73; surface CD73
T1 sequence (looked up): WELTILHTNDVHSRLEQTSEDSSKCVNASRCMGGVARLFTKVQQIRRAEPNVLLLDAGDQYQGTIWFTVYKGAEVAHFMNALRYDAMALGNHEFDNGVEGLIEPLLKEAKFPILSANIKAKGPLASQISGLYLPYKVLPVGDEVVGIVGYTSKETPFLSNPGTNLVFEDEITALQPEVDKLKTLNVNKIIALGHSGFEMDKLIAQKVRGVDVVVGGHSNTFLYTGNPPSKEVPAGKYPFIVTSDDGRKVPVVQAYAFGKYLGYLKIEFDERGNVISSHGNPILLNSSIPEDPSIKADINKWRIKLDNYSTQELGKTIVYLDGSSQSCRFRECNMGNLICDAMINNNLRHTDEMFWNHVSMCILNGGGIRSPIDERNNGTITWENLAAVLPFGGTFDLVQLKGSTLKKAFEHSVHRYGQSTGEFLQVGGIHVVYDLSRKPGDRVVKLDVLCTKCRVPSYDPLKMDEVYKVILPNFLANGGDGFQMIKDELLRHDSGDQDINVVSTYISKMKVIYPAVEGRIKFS
The assay is described as follows: flow cytometry on MDA-MB-231 cells, biotin-labeled antibody, streptavidin-FITC (FIG. 5B). As for the experimental part:
(§1) The binding of anti-CD73 antibodies to cell surface CD73 were tested by incubating the MDA-MB-231 cells with the serially diluted biotin-labeled anti-CD73 antibodies in FACS buffer (PBS with 2% FBS) at 4° C. for 30 minutes. The cells were washed with FACS buffer and the binding was detected with streptavidin-FITC at 4° C. for 30 minutes. Flow cytometric analyses were performed using the Cytomics FC500 (Beckman Coulter Inc.).
(§2) The variable sequences of N1, N2 and N4 were cloned into human wild-type or C219S mutant IgG2 Fc backbone. Different IgG isotypes of N1 (FIG. 5A), N2 (FIG. 5B), N4 (FIG. 5C) were tested the binding to CD73-expressing human MDA-MB-231 cells by flow cytometry. Anti-CD73 ref-1 antibody and HLX01 (anti-CD20) were used as the positive and negative control respectively.
In general terms: A flow cytometer gives signals particle by particle.

Assay [2] deals with T1, human CD73 on CD73-expressing human …. Briefly: flow cytometry on MDA-MB-231 cells, biotin-labeled antibody, streptavidin-FITC (FIG. 5C). As for the experimental part:
as §1, §2

For assay [3] the target is unchanged. Briefly: flow cytometry on MDA-MB-231 cells, biotin-labeled antibody, streptavidin-FITC (FIG. 5A). How it is done: as §1, §2

Positions count from the first letter of the chain named. Numbers in names are those of the source.

B1: N2-tmtIgG1 (antibody)
heavy: QVQLQQWGAGLLKPSETLSLTCAVYGGSFSGYYWSWIRQPPGKGLEWIGEINHSGSTNYNPSLKSRVTISVDTSKNQFSLKLSSVTAADTAVYYCARGRYDFWSGYYAYFDYWGQGTLVTVSSASTKGPSVFPLAPSSSTSGGTAALGCLVKDYFPEPVTVSWNSGALTSGVHTFPAVLQSSGLYSLSSVVTVPSSSLGTQTYICNVNHKPSNTKVDKRVEPKSCDKTHTCPPCPAPEFEGGPSVFLFPPKPKDTLMISRTPEVTCVVVDVSHEDPEVKFNWYVDGVEVHNAKTKPREEQYNSTYRVVSVLTVLHQDWLNGKEYKCKVSNKALPASIEKTISKAKGQPREPQVYTLPPSREEMTKNQVSLTCLVKGFYPSDIAVEWESNGQPENNYKTTPPVLDSDGSFFLYSKLTVDKSRWQQGNVFSCSVMHEALHNHYTQKSLSLSPGK
light: LNFMLTQPHSVSESPGKTVTISCTCSGGRIANNYVQWYQQRPGTSPTTVIYEDNLRPSGVPDRFSGSIDRASNSASLTISDLRTEDEAHYYCQSYDSNDGVAFGGGTKLTVLGQPKAAPSVTLFPPSSEELQANKATLVCLISDFYPGAVTVAWKADSSPVKAGVETTTPSKQSNNKYAASSYLSLTPEQWKSHRSYSCQVTHGGSTVEKTVALTECS
notes: Heavy chain assembled from the VH entry and the constant region entry named tmtIgG1; also called lead N2; N2 clone, tmtIgG1 isotype
As for B1, the binding result in assay [1] is reported as “binds”.

B2: N2-wtIgG2 (antibody)
heavy: QVQLQQWGAGLLKPSETLSLTCAVYGGSFSGYYWSWIRQPPGKGLEWIGEINHSGSTNYNPSLKSRVTISVDTSKNQFSLKLSSVTAADTAVYYCARGRYDFWSGYYAYFDYWGQGTLVTVSSASTKGPSVFPLAPCSRSTSESTAALGCLVKDYFPEPVTVSWNSGALTSGVHTFPAVLQSSGLYSLSSVVTVPSSNFGTQTYTCNVDHKPSNTKVDKTVERKCCVECPPCPAPPVAGPSVFLFPPKPKDTLMISRTPEVTCVVVDVSHEDPEVQFNWYVDGVEVHNAKTKPREEQFNSTFRVVSVLTVVHQDWLNGKEYKCKVSNKGLPAPIEKTISKTKGQPREPQVYTLPPSREEMTKNQVSLTCLVKGFYPSDIAVEWESNGQPENNYKTTPPMLDSDGSFFLYSKLTVDKSRWQQGNVFSCSVMHEALHNHYTQKSLSLSPGK
light: B1 light
notes: also called N2 clone, wtIgG2 isotype
For the molecule B2, the binding result in assay [1] is listed as “binds”.

B3: N2-mtIgG2 (antibody)
heavy: B2 heavy with C225S
light: B1 light
notes: also called N2 clone, mtIgG2 isotype; C219S mutant IgG2
Take B3: the binding result in assay [1] is given as “binds”.

B4: N4-tmtIgG1 (antibody)
heavy: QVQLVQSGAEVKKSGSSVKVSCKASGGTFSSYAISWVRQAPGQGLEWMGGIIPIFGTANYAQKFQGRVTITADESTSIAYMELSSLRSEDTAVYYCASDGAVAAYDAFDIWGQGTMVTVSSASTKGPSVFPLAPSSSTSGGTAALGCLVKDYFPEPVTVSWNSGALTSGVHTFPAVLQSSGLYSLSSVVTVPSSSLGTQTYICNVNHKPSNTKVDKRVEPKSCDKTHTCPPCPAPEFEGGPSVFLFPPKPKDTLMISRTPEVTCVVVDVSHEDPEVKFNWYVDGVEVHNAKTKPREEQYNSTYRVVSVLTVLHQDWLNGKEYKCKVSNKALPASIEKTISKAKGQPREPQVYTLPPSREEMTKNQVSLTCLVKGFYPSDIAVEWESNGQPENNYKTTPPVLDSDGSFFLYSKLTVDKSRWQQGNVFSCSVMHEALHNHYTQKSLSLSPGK
light: QAVLTQPSSVSGAPGQRVTISCTGTSSNIGAGYDIHWYQQLPGTAPKLLMYRFTRRPSGVPDRFSGSKSGTSASLTITGLQVEDEADYYCQSYDSGLRGWVFGGGTKLAVLGQPKAAPSVTLFPPSSEELQANKATLVCLISDFYPGAVTVAWKADSSPVKAGVETTTPSKQSNSKYAASSYLSLTPEQWKSHRSYSCQVTHEGSTVEKTVALTECS
notes: Heavy chain assembled from the VH entry and the constant region entry named tmtIgG1; also called lead N4; N4 clone, tmtIgG1 isotype
On to B4, for which, in assay [2], the binding result is listed as “binds”.

B5: N4 with wtIgG2 isotype (antibody)
heavy: QVQLVQSGAEVKKSGSSVKVSCKASGGTFSSYAISWVRQAPGQGLEWMGGIIPIFGTANYAQKFQGRVTITADESTSIAYMELSSLRSEDTAVYYCASDGAVAAYDAFDIWGQGTMVTVSSASTKGPSVFPLAPCSRSTSESTAALGCLVKDYFPEPVTVSWNSGALTSGVHTFPAVLQSSGLYSLSSVVTVPSSNFGTQTYTCNVDHKPSNTKVDKTVERKCCVECPPCPAPPVAGPSVFLFPPKPKDTLMISRTPEVTCVVVDVSHEDPEVQFNWYVDGVEVHNAKTKPREEQFNSTFRVVSVLTVVHQDWLNGKEYKCKVSNKGLPAPIEKTISKTKGQPREPQVYTLPPSREEMTKNQVSLTCLVKGFYPSDIAVEWESNGQPENNYKTTPPMLDSDGSFFLYSKLTVDKSRWQQGNVFSCSVMHEALHNHYTQKSLSLSPGK
light: B4 light
notes: also called N4-wtIgG2; N4 clone, wtIgG2 isotype
As for B5, the binding result in assay [2] is “binds”.

B6: N4 with mtIgG2 isotype (antibody)
heavy: B5 heavy with C223S
light: B4 light
notes: also called N4-mtIgG2; N4 clone, mtIgG2 isotype
Consider B6, for which the binding result in assay [2] is recorded as “binds”.

B7: N1-tmtIgG1 (antibody)
heavy: EVQLVESGGGLVQPGRSLRLSCAASGFTFDDYAMHWVRQAPGKGLEWVSGISWNSGSIGYADSVRGRFTISRDNAKNSLYLQMNSLRAEDTALYYCAKDMGWELLKTYYYGMDVWGQGTTVTVSSASTKGPSVFPLAPSSSTSGGTAALGCLVKDYFPEPVTVSWNSGALTSGVHTFPAVLQSSGLYSLSSVVTVPSSSLGTQTYICNVNHKPSNTKVDKRVEPKSCDKTHTCPPCPAPEFEGGPSVFLFPPKPKDTLMISRTPEVTCVVVDVSHEDPEVKFNWYVDGVEVHNAKTKPREEQYNSTYRVVSVLTVLHQDWLNGKEYKCKVSNKALPASIEKTISKAKGQPREPQVYTLPPSREEMTKNQVSLTCLVKGFYPSDIAVEWESNGQPENNYKTTPPVLDSDGSFFLYSKLTVDKSRWQQGNVFSCSVMHEALHNHYTQKSLSLSPGK
light: not shown
notes: Heavy chain assembled from the VH entry and the constant region entry named tmtIgG1; also called lead N1; N1 clone, tmtIgG1 isotype
For B7, in assay [3], the binding result was “binds”.

The record behind these values is patent publication US20220162334A1 (SHANGHAI HENLIUS BIOTECH, published 2022).
